In patent US20090298178A1, “GROWTH FACTORS FOR PRODUCTION OF DEFINITIVE ENDODERM” (priority 2008, published 2009):

How the values were obtained:
[1] = test system: hES cells (CyT49; passage 35); test: Further differentiation to pancreatic endoderm and endocrine cells, real-time PCR at 10 days (Example 4); type: cell-based, human; settings: definitive endoderm produced using Wnt3a at 50 or 75 ng/ml or GXV at 10 nM, FIG. 7
Procedure: Human ES cell cultures were maintained and differentiated substantially as described above in Example 1, and further differentiated to foregut endoderm (stage 2) and then onto pancreatic endoderm and pancreatic endocrine cells (stages 3 and 4). After 48 hours of differentiation to definitive endoderm (stage 1) the cells were briefly washed in PBS+/+ and then further differentiated in RPMI supplemented with 0.2% FBS, Insulin-Transferrin-Selenium (1:1000), Glutamax, penicillin/streptomycin, and 25 ng/mL KGF (R&D Systems) for 3 days. On the first day of stage 2, the culture also received TGF-beta inhibitor No. 4 (3-(6-Methylpyridin-2-yl)-4-(4-quinolyl)-1-phenylthiocarbamoyl-1H-pyrazole) at 2.5 uM (EMD Bioscience). After three days in stage 2 the cells were then differentiated for one day in DMEM with B27 supplement (1:100) containing all-trans retinoic acid (RA) at 0.2 uM and KAAD-cyclopamine at 0.25 uM. Following the single day of retinoid exposure, the cells were cultured in DMEM with B27 (1:100) containing noggin at 40 ng/ml. […]
However, in this instance, the stage 4 noggin treatment lasted for 4 days, as compared to 3 days in Example 2, and replicate samples were taken for real-time PCR analysis at a total of 10 days of differentiation, as compared to 9 days in Example 2.

[2] = test system: hES cells (CyT49; passage 35); test: Differentiation of hES cells to definitive endoderm with activin A plus Wnt3a or GSK3 inhibitors, real-time quantitative PCR at 48 hours (Example 4); type: cell-based, human; settings: with 100 ng/mL activin A; Wnt3a 25, 50 or 75 ng/mL; GSK3 inhibitor No.15 at 10 nM; FIG. 6A-B
Procedure: Undifferentiated hES cells (CyT49; passage 35) were maintained substantially as described in Example 1 above. Ten hES cell culture plates were then differentiated in RPMI (Mediatech) supplemented with Glutamax, penicillin/streptomycin, and varying concentrations of defined FBS (HyClone). FBS concentrations were 0% for the first 24 h and 0.2% for the second 24 h. Additionally, 0.1% BSA (Invitrogen/Gibco) was added on the first day only. All plates received 100 ng/mL activin A for both days. […] Replicate samples were collected from each culture condition at 48 hours after differentiation commenced and analyzed for relative gene expression using real-time quantitative PCR.

B1: Wnt3a: Wnt protein (R&D Systems) activating the Wnt signaling pathway (protein, UniProt P56704 19-352, looked up)
Protein Wnt-3a: SYPIWWSLAVGPQYSSLGSQPILCASIPGLVPKQLRFCRNYVEIMPSVAEGIKIGIQECQHQFRGRRWNCTTVHDSLAIFGPVLDKATRESAFVHAIASAGVAFAVTRSCAEGTAAICGCSSRHQGSPGKGWKWGGCSEDIEFGGMVSREFADARENRPDARSAMNRHNNEAGRQAIASHMHLKCKCHGLSGSCEVKTCWWSQPDFRAIGDFLKDKYDSASEMVVEKHRESRGWVETLRPRYTYFKVPTERDLVYYEASPNFCEPNPETGSFGTRDRTCNVSSHGIDGCDLLCCGRGHNARAERRREKCRCVFHWCCYVSCQECTRVYDVHTCK
abundance of pancreatic endoderm and endocrine cell types (PDX1, PTF1A, NKX6-1 and NKX2-2 induction) [1]: much greater abundance | expression levels of SOX17 and FOXA2 at 48 hours of differentiation as compared to the other GSK inhibitors [2]: substantially higher
